This experiment deals with recombinant human TfR1 (human) (UniProt P02786). The experiment in a line: SPR (Carterra LSA), IgG captured on chip, TfR1 as analyte, 25 C.
Chain of recombinant human TfR1 (human) (P02786 89-760 limits assumed): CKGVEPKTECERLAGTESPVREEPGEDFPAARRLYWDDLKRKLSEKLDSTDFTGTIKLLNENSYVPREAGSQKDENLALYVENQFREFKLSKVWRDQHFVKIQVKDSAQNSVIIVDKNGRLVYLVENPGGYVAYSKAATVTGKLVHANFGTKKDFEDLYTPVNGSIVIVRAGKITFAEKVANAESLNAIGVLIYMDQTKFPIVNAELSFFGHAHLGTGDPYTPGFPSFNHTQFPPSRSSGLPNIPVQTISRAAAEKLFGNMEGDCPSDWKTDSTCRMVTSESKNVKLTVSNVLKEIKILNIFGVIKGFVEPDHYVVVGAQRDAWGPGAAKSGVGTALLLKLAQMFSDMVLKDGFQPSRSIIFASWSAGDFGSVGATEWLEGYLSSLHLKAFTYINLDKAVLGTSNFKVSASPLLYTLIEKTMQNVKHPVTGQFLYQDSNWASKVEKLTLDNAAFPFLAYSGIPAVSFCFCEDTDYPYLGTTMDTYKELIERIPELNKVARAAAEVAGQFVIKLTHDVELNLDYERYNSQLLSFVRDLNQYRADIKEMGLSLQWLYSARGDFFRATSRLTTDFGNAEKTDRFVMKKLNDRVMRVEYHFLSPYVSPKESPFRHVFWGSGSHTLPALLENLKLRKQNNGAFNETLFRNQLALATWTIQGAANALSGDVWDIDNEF

For orientation: Kd means a measure of binding affinity in units of concentration. With OKT9 mIgG (antibody), the Kd amounted to 0.536 nM.

(Values after patent US20250152727A1.)
